These results are taken from article doi:10.1101/354985.

What all share (assay): EMSA
The target in data set [1] is T1, Δ70-POT1aC;TPP1 (mouse? (POT1a part); RPA70 organism not …, UniProt Q8VEE4;Q5EE38 191-623+Q91WC1:149-640;1-416, internal_change|).
The target of data set [2] is T2, POT1a;TPP1 (mouse;mouse?, UniProt Q91WC1;Q5EE38 1-640;1-416, |).
T2 sequence 1: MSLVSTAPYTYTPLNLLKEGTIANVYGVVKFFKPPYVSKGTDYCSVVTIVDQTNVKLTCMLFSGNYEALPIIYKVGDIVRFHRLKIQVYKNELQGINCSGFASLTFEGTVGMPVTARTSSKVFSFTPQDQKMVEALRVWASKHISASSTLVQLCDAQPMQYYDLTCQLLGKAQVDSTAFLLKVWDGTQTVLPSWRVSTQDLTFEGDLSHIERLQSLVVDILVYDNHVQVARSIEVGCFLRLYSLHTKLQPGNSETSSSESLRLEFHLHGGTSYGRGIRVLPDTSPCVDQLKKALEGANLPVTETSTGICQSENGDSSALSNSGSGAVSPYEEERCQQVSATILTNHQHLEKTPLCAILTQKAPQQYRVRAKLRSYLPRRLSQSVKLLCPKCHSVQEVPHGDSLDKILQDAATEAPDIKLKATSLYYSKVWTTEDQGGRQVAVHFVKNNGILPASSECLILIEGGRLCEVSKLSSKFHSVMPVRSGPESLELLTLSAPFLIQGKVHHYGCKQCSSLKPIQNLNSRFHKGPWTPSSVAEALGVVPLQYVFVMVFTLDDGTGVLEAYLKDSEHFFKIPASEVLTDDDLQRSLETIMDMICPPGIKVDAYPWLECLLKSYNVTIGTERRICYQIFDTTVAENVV
T2 sequence 2: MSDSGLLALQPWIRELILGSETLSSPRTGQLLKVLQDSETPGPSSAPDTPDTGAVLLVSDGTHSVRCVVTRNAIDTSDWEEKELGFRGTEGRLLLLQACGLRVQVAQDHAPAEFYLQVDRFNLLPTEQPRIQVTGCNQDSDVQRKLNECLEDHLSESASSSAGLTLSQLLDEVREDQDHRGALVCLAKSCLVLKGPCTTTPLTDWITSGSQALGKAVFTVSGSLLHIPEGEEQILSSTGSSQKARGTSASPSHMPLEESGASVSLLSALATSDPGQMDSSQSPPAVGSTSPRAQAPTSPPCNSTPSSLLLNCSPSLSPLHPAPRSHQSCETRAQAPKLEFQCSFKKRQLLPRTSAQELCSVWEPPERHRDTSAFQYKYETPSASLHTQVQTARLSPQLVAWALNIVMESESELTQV

In data set [3] the target is T1, Δ70-POT1aC;TPP1. The source holds these as a separate data set.
Data set [4] concerns the target T2, POT1a;TPP1. The source holds these as a separate data set.

B1: Telo34 (ssDNA)
DNA: TTAGGGTTAGGGTTAGGGTTAGGGTTAGGGTTAG
In the case of B1, the Kd with Δ70-POT1aC;TPP1 [1] and with POT1a;TPP1 [2] was roughly 0.5 nM each time.

B2: Scr35 (ssDNA)
DNA: ATGCGACTCGAGCTAGATGATGTCTTCTGCAATCA
On to B2, for which the binding result in the data set with Δ70-POT1aC;TPP1 [3] is “binds”; in the data set with POT1a;TPP1 [4], “no binding”.
